Patent US20190100588A1

B1: antibody 616 (antibody, V domains shown)
VH: QIHLVQSGPELKKPGETVRISCKASGYTFTTYGMSWVKQAPGKALKWMGWINTYSGVPTYADDFKGRFAFSLETSASTAYLQINNLKNEDTATYFCTREGSTMVTRYYFDYWGQGTTLTVSS
VL: DIVMTQAAPSVPVTPGESVSISCRSSKSLLHSNGNTYLYWFLQRPGQSPQLLIYRMSNLASGVPDRFSGSGSGTAFTLRISRVEAEDVGVYHCMQHLESPYTFGGGTTLEIK
B2: antibody 619 (antibody, V domains shown)
VH: QIQLVQSGPELKKPGETVKISCKASGYTFTTYGMSWVKQAPGKGLKWMGWINTYSGVPTYADDFKGRFAFSLETSASTAYLQINNLKNEDTATYFCAREGSTMVTRYYFDYWGQGTTLTVSS
VL: DIVMTQAAPSVPVTPGESVSISCRSSKSLLHSNGNTYLYWFLQRPGQSPQVLIYRMSNLASGVPDRFSGSGSGTAFTLRISRVEAEDVGVYYCMQHLESPYTFGGGTKLEIK
B3: antibody 623 (antibody, V domains shown)
VH: QIQLVQSGPELKKPGETVKISCKASGYTFTTYGMSWVKQAPGKGLKWMGWINTYSGVPTYADDFKGRFAFSLETSASTAYLQINNLKNEDTATFFCAREGSTMVTRYYFDYWGQGTTLTVSS
VL: DIVMTQAAPSVPVTPGESVSISCRSSKSLLHSNGNTYLYWFLQRPGQSPQLLIYRMSNLASGVPDRFSGSGSGTAFTLRISRVEAEDVGVYYCMQHLEYPSTFGGGTKLEIK
B4: antibody 617 (antibody, V domains shown)
VH: QVQLQLPGAELVKPGASVKVSCKASAYTFTSYWMHWVKQRPGQGLEWIGRIHPSDSDTNYNQNFKGKATLTVDKSSNTAYMQLSSLTSEDSAVYYCATGFSFWGQGTLVTVSA
VL: DIVMTQSHKFMSTSVGDRVSITCKASQDVSTTVAWYQQKPGQSPKLLIYSASYRYTGVPDRFTGSGSGTDFTFTISSVQAEDLAVYYCQQHYSTRPTFGGGTKLEIK

Target: Pep1/Pep2
Experiment: ELISA, coated peptide

Binder | ELISA O.D.
B1 | 0.069 O.D.
B2 | 0.064 O.D.
B3 | 0.098 O.D.
B4 | 0.102 O.D.
